{"source": "patent US20190336574A1", "about": "(TRUSTEES OF PRINCETON UNIVERSITY, published 2019)", "binders": {"B1": {"name": "Myc-MTDH, full-length human, wild type (other)", "chain": "MAARSWQDELAQQAEEGSARLREMLSVGLGFLRTELGLDLGLEPKRYPGWVILVGTGALGLLLLFLLGYGWAAACAGSRKKRRSPPRKREEAAAVPAAAPDDLALLKNLRSEEQKKKNRKKLSEKPKPNGRTVEVAEGEAVRTPQSVTAKQPPEIDKKNEKSKKNKKKSKSDAKAVQNSSRHDGKEVDEGAWETKISHREKRQQRKRDKVLTDSGSLDSTIPGIENTITVTTEQLTTASFPVGSKKNKGDSHLNVQVSNFKSGKGDSTLQVSSGLNENLTVNGGGWNEKSVKLSSQISAGEEKWNSVSPASAGKRKAEPSAWSQDTGDANTNGKDWGRSWSDRSIFSGIGSTAEPVSQSTTSDYQWDVSRNQPYIDDEWSGLNGLSSADPNSDWNAPAEEWGNWVDEERASLLKSQEPIPDDQKVSDDDKEKGEGALPTGKSKKKKKKKKKQGEDNSTAQDTEELEKEIREDLPVNTSKTRPKQEKAFSLKTISTSDPAEVLVKNSQPIKTLPPATSTEPSVILSKSDSDKSSSQVPPILQETDKSKSNTKQNSVPPSQTKSETSWESPKQIKKKKKARRET", "notes": "Full-length, Myc-tagged; Expressed in HEK293T cells, tested in lysate; also called Myc-tagged MTDH; WT Myc-MTDH"}}, "key": {"[1]": {"biological_target": "T1, HA-SND1 Δ39-43, full-length human (human, UniProt Q7KZF4 1-910)", "T1 construct": "also called 439-43", "T1 sequence": "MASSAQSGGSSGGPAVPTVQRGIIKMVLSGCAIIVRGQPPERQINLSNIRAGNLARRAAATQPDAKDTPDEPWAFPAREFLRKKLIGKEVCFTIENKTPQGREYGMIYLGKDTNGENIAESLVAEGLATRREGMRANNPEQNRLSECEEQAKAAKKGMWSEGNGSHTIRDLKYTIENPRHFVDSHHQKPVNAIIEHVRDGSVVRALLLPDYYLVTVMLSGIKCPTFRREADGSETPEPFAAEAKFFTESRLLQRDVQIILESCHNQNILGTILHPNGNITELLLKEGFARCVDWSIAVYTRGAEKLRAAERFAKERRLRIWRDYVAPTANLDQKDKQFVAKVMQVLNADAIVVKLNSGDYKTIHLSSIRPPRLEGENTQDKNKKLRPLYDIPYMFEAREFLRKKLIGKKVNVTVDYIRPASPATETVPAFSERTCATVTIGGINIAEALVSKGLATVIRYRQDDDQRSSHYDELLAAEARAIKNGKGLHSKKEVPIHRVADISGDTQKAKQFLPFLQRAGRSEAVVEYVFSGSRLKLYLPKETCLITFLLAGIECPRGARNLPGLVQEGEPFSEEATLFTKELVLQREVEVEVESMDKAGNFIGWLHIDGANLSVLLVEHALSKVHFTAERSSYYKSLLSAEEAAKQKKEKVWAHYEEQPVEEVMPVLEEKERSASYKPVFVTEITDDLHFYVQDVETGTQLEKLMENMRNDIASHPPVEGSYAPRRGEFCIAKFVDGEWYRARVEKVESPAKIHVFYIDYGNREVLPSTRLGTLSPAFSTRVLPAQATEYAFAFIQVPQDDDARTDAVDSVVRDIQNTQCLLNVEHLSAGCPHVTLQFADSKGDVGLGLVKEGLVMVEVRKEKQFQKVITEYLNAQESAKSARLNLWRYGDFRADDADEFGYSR", "experiment": "co-IP (anti-Myc) from HEK293T lysates, western blot"}, "[2]": {"biological_target": "T2, HA-SND1 F250A, full-length human (human, UniProt Q7KZF4 1-910)", "T2 construct": "Full-length, HA-tagged", "T2 sequence": "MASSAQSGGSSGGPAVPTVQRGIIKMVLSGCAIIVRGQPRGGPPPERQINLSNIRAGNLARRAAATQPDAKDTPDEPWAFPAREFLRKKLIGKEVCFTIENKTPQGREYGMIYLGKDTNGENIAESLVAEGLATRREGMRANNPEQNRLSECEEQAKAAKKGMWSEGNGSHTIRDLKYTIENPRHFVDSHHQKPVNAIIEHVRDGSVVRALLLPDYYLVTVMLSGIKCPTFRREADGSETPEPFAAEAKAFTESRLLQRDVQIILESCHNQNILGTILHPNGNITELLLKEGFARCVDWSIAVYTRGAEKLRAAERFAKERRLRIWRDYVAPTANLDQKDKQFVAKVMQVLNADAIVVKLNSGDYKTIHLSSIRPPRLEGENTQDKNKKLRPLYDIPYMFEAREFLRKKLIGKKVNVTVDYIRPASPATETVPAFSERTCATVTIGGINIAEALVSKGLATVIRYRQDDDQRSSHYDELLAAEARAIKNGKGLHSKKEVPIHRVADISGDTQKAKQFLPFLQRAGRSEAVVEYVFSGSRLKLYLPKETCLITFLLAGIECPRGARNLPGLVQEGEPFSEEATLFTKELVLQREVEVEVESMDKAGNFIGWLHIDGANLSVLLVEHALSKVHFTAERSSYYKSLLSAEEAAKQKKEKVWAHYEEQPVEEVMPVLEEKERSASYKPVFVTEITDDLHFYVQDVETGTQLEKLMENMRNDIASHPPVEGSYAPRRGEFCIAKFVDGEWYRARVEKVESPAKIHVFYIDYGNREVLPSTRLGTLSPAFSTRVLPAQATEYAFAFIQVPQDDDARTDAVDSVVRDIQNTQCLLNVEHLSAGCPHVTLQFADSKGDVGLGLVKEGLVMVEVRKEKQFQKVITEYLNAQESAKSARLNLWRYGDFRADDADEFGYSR", "experiment": "co-IP (anti-Myc) from HEK293T lysates, western blot"}, "[3]": {"biological_target": "human AGO2 (ectopically expressed in HEK293T cells) (human, UniProt Q9UKV8 1-859)", "sequence (Q9UKV8 whole entry, the tested form may be a part)": "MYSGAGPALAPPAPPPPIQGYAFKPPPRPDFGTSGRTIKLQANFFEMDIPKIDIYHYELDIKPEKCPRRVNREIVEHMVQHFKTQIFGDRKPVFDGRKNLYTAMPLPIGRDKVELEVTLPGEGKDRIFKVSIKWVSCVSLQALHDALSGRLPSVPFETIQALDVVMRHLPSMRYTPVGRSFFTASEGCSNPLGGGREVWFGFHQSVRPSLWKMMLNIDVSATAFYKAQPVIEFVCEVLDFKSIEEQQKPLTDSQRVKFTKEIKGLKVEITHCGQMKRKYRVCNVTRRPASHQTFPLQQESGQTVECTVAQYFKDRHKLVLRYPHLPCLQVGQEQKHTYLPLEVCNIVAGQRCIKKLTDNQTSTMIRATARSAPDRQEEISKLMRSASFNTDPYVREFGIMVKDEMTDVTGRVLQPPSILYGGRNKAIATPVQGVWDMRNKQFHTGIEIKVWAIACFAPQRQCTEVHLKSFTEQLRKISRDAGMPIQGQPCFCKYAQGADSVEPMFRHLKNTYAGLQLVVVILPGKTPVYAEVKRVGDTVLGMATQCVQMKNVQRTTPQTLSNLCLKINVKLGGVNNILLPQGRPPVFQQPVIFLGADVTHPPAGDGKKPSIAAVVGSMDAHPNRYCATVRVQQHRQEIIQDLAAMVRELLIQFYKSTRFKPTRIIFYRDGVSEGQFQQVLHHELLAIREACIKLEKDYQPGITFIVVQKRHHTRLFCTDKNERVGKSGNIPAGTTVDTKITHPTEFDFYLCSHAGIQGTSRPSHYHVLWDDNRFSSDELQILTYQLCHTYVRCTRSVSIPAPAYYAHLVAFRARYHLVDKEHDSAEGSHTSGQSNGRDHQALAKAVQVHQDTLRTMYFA", "experiment": "anti-Myc co-IP from HEK293T lysate (HA-SND1 and FLAG-AGO2 co-expressed), western blot", "text": "Two putative nuclear localization signals are residues 432-451 for NLS2 and residues 561-580 for NLS3. […] (FIG. 7B) Pulldown of His6-SND1ΔC by GST-tagged MTDH fragments with indicated boundaries. The bound proteins were examined by SDS-PAGE and visualized by Coomassie blue staining. […] For (FIG. 7B) and (FIG. 7C), 1/10 of the His6-SND1ΔC input was shown, and GST alone was used as a negative control. Representative results of 3 independent experiments are shown. (FIG. 7D, FIG. 7E) Lysates from HEK293T cells expressing the indicated ectopic human SND1, AGO2 or MTDH were immunoprecipitated with anti-Myc and immunoblotted with the indicated antibodies.\nImmunoprecipitation and western blot For immunoprecipitation (IP) experiments, cultured cells were washed in cold PBS and lysed in lysis buffer (20 mM Tris pH 7.4, 0.15 M NaCl, 1 mM EDTA, 1 mM EGTA, 1% Tx-100, 0.0025 M Na2P2O7, 1 mM α-glycerolphosphate, 1 mM Na3VO4, and 1 mM NaF) with an EDTA-free protease inhibitor mixture (Roche Applied Science) and PMSF. Cell lysates were then incubated on ice for 10 min, centrifuged, and precleared by incubating with protein A/G beads (Santa Cruz Biotechnology) for 1 h at 4° C. For IP bead preparation, 30 μl of protein A/G beads were incubated with 5 μg of antibodies for 2 h at 4° C. […]"}}, "data": [{"binder": "B1", "values": [{"measurement": "binding result", "setting": "[1]", "value": "no binding"}, {"measurement": "binding result", "setting": "[2]", "value": "no binding"}, {"measurement": "binding result", "setting": "[3]", "value": "binds"}]}]}
